This is an account of results in publication PMC8131632 (2021).

The chains are these.
B1: REGN10987 Fab-TD (Fab, V domains shown)
VH: QVQLVESGGGVVQPGRSLRLSCAASGFTFSNYAMYWVRQAPGKGLEWVAVISYDGSNKYYADSVKGRFTISRDNSKNTLYLQMNSLRTEDTAVYYCASGSDYGDYLLVYWGQGTLVTVSS
VL: QSALTQPASVSGSPGQSITISCTGTSSDVGGYNYVSWYQQHPGKAPKLMIYDVSKRPSGVSNRFSGSKSGNTASLTISGLQSEDEADYYCNSLTSISTWVFGGGTKLTVL
B2: REGN10987 Ig-TD (antibody, V domains shown)
VH: QVQLVESGGGVVQPGRSLRLSCAASGFTFSNYAMYWVRQAPGKGLEWVAVISYDGSNKYYADSVKGRFTISRDNSKNTLYLQMNSLRTEDTAVYYCASGSDYGDYLLVYWGQGTLVTVSS
VL: QSALTQPASVSGSPGQSITISCTGTSSDVGGYNYVSWYQQHPGKAPKLMIYDVSKRPSGVSNRFSGSKSGNTASLTISGLQSEDEADYYCNSLTSISTWVFGGGTKLTVL
B3: REGN10987 mIg-TD (antibody, V domains shown)
VH: QVQLVESGGGVVQPGRSLRLSCAASGFTFSNYAMYWVRQAPGKGLEWVAVISYDGSNKYYADSVKGRFTISRDNSKNTLYLQMNSLRTEDTAVYYCASGSDYGDYLLVYWGQGTLVTVSS
VL: QSALTQPASVSGSPGQSITISCTGTSSDVGGYNYVSWYQQHPGKAPKLMIYDVSKRPSGVSNRFSGSKSGNTASLTISGLQSEDEADYYCNSLTSISTWVFGGGTKLTVL
B4: CB6/Junshi Fab-TD (Fab, V domains shown)
VH: EVQLVESGGGLVQPGGSLRLSCAASGFTVSSNYMSWVRQAPGKGLEWVSVIYSGGSTFYADSVKGRFTISRDNSMNTLFLQMNSLRAEDTAVYYCARVLPMYGDYLDYWGQGTLVTVSS
VL: not shown
B5: CB6/Junshi Ig-TD (antibody, V domains shown)
VH: EVQLVESGGGLVQPGGSLRLSCAASGFTVSSNYMSWVRQAPGKGLEWVSVIYSGGSTFYADSVKGRFTISRDNSMNTLFLQMNSLRAEDTAVYYCARVLPMYGDYLDYWGQGTLVTVSS
VL: not shown
B6: CB6/Junshi mIg-TD (antibody, V domains shown)
VH: EVQLVESGGGLVQPGGSLRLSCAASGFTVSSNYMSWVRQAPGKGLEWVSVIYSGGSTFYADSVKGRFTISRDNSMNTLFLQMNSLRAEDTAVYYCARVLPMYGDYLDYWGQGTLVTVSS
VL: not shown
B7: REGN10933 Ig-TD (antibody, V domains shown)
VH: QVQLVESGGGLVKPGGSLRLSCAASGFTFSDYYMSWIRQAPGKGLEWVSYITYSGSTIYYADSVKGRFTISRDNAKSSLYLQMNSLRAEDTAVYYCARDRGTTMVPFDYWGQGTLVTVSS
VL: DIQMTQSPSSLSASVGDRVTITCQASQDITNYLNWYQQKPGKAPKLLIYAASNLETGVPSRFSGSGSGTDFTFTISGLQPEDIATYYCQQYDNLPLTFGGGTKVEIK
B8: REGN10933 IgG1 (antibody, V domains shown)
VH: QVQLVESGGGLVKPGGSLRLSCAASGFTFSDYYMSWIRQAPGKGLEWVSYITYSGSTIYYADSVKGRFTISRDNAKSSLYLQMNSLRAEDTAVYYCARDRGTTMVPFDYWGQGTLVTVSS
VL: DIQMTQSPSSLSASVGDRVTITCQASQDITNYLNWYQQKPGKAPKLLIYAASNLETGVPSRFSGSGSGTDFTFTISGLQPEDIATYYCQQYDNLPLTFGGGTKVEIK
B9: REGN10933 Fab-TD (Fab, V domains shown)
VH: QVQLVESGGGLVKPGGSLRLSCAASGFTFSDYYMSWIRQAPGKGLEWVSYITYSGSTIYYADSVKGRFTISRDNAKSSLYLQMNSLRAEDTAVYYCARDRGTTMVPFDYWGQGTLVTVSS
VL: DIQMTQSPSSLSASVGDRVTITCQASQDITNYLNWYQQKPGKAPKLLIYAASNLETGVPSRFSGSGSGTDFTFTISGLQPEDIATYYCQQYDNLPLTFGGGTKVEIK
B10: REGN10933 mIg-TD (antibody, V domains shown)
VH: QVQLVESGGGLVKPGGSLRLSCAASGFTFSDYYMSWIRQAPGKGLEWVSYITYSGSTIYYADSVKGRFTISRDNAKSSLYLQMNSLRAEDTAVYYCARDRGTTMVPFDYWGQGTLVTVSS
VL: DIQMTQSPSSLSASVGDRVTITCQASQDITNYLNWYQQKPGKAPKLLIYAASNLETGVPSRFSGSGSGTDFTFTISGLQPEDIATYYCQQYDNLPLTFGGGTKVEIK

In the test the target is SARS-CoV-2 spike receptor binding domain (RBD), Avi-tagged and biotinylated (SARS-CoV-2, UniProt P0DTC2 319-541, biotin (Avi tag, by BirA)). Briefly: ELISA. (In an ELISA, binding on a coated surface is turned into a signal by an enzyme label.)
With B1, the IC50 (in general, the midpoint of a concentration-inhibition curve) worked out at 0.02 nM.

Consider B2, for which the IC50 stood at 0.12 nM.

For the molecule B3, the IC50 came out at 0.4 nM.

Molecule B4 showed an IC50 of 0.03 nM.

In turn, B5 registered an IC50 of 0.1 nM.

As to B6, the IC50 was found to be 0.29 nM.

Consider B7, for which the IC50 stood at 0.045 nM.

B8 came in with an IC50 of 1.45 nM.

Take B9: the IC50 amounted to 0.012 nM.

With B10, the IC50 turned out to be 0.18 nM.
